Molecular target: CD19-CD22 CAR(CD19-CD22双靶点CAR-T细胞表面表达的CD19-CD22 scFv)
Experiment: flow cytometry on CD19-CD22 CAR-T cells, positive control tube

Alexa Fluor®647荧光标记的抗鼠F(ab')2抗体(Jackson ImmunoResearch Laboratories，货号#115-605-072) (antibody)
CAR阳性百分率: 31.6%
